Experimental data from PMC6468305.

Target: S. epidermidis Csm3 (SeCsm3) in the Cas10–Csm effector complex (S. epidermidis RP62a)
Experiment: cryo-EM structure

## S. epidermidis Csm3 (SeCsm3) in the Cas10–Csm effector complex (natural protein)
  stoichiometry N: 5
